How the values were obtained:
[1] = target: SAGA DUB module containing Ubp8^C146A (yeast) (UniProt P50102); assay: ITC
[2] = target: SAGA DUB module containing Ubp8^C146S (yeast) (UniProt P50102); assay: ITC
[3] = target: FlAsH tagged K63-linked diubiquitin (UniProt P0CG47); assay: fluorescence polarisation

SAGA DUB module containing Ubp8^C146A (yeast), sequence (P50102 whole entry C146A, chain 1 of 4): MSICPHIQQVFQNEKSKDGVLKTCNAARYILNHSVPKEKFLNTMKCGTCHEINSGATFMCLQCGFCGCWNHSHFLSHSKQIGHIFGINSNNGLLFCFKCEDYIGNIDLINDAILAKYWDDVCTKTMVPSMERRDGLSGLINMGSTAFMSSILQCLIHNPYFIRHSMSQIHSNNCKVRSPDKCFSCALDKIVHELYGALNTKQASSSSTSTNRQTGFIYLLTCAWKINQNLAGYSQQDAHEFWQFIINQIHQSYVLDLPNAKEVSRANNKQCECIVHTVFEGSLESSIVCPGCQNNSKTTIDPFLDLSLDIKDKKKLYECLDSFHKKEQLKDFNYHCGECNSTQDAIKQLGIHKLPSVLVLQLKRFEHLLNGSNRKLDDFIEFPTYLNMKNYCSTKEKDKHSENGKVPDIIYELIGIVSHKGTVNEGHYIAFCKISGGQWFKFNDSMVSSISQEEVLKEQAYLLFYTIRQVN
SAGA DUB module containing Ubp8^C146A (yeast), sequence (Q03067 whole entry, chain 2 of 4, further chain): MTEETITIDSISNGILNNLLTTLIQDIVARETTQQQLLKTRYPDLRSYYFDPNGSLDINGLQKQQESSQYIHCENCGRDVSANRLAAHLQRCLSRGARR
SAGA DUB module containing Ubp8^C146A (yeast), sequence (Q6WNK7 whole entry, chain 3 of 4, further chain): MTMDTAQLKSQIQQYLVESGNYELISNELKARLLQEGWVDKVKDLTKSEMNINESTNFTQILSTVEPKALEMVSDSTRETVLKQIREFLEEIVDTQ
SAGA DUB module containing Ubp8^C146A (yeast), sequence (P53165 1-96, chain 4 of 4, further chain): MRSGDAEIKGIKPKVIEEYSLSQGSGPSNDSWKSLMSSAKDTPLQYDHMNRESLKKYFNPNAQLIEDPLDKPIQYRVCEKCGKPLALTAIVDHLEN
SAGA DUB module containing Ubp8^C146S (yeast), sequence (P50102 whole entry C146S, chain 1 of 4): as the sequence (P50102 whole entry C146A, chain 1 of 4) above, with A146S counted along it
SAGA DUB module containing Ubp8^C146S (yeast), sequence (Q03067 whole entry, chain 2 of 4, further chain): as the sequence (Q03067 whole entry, chain 2 of 4, further chain) above
SAGA DUB module containing Ubp8^C146S (yeast), sequence (Q6WNK7 whole entry, chain 3 of 4, further chain): as the sequence (Q6WNK7 whole entry, chain 3 of 4, further chain) above
SAGA DUB module containing Ubp8^C146S (yeast), sequence (P53165 1-96, chain 4 of 4, further chain): as the sequence (P53165 1-96, chain 4 of 4, further chain) above

| Kd [1] | Kd [2] | Kd [3] | Substance |
| --- | --- | --- | --- |
| 0.47 µM | 4.6 µM |  | K48-linked diubiquitin (from UniProt P0CG47 1-76) |
|  |  | 40 µM | OTUD1^C320A catalytic domain (residues 287-435) (from UniProt Q5VV17 287-435) (domain or fragment) |

— article doi:10.1101/238154
